Laboratory results from patent US20060105407.

Columns and labels:
leptin-monomer Ab1 = leptin-monomer Ab1 (UniProt P41159)
leptin-dimer Ab1 = leptin-dimer Ab1 (UniProt P41159)
leptin-dimer kemptide = leptin-dimer kemptide (UniProt P41159)
[1] = biological target: T1, malic enzyme-monomer kemptide (UniProt P26616)
T1 sequence: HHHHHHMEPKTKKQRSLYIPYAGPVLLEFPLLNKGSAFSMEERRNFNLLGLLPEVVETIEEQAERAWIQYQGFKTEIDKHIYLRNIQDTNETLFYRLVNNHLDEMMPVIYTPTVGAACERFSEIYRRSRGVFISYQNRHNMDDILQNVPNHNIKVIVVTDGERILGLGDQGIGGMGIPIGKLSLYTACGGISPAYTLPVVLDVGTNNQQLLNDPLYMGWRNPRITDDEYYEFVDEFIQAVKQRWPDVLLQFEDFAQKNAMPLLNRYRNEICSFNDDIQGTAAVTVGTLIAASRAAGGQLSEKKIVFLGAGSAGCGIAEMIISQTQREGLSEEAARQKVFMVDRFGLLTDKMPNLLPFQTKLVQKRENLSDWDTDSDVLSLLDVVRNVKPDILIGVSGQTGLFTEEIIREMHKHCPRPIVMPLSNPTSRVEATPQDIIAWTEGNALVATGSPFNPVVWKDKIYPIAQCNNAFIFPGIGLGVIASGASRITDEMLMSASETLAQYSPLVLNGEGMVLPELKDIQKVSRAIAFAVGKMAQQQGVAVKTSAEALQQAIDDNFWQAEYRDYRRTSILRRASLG

leptin-dimer kemptide, sequence (P41159 other isoform, or with tags, fused parts or gaps): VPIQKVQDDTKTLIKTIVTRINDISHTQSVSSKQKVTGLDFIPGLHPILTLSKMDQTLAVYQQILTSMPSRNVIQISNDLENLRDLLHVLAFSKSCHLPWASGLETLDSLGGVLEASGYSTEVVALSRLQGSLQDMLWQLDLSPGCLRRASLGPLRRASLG
leptin-dimer Ab1, sequence (P41159 other isoform, or with tags, fused parts or gaps): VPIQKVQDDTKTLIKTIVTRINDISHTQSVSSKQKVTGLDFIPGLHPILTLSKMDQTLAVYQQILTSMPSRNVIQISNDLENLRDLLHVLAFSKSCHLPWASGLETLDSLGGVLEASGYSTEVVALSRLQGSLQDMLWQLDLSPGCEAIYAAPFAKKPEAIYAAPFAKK
leptin-monomer Ab1, sequence (P41159 other isoform, or with tags, fused parts or gaps): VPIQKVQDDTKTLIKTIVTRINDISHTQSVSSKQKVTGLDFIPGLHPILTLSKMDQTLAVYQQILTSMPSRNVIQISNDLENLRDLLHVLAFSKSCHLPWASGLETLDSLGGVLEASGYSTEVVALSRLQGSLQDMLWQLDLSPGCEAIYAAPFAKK

Substance | fluorometric analysis of phosphorylation on protein chip (Cy5-labeled anti-phosphorylation tyrosine antibody) (leptin-monomer Ab1) | fluorometric analysis of phosphorylation on protein chip (Cy5-labeled anti-phosphorylation tyrosine antibody) (leptin-dimer Ab1) | fluorometric analysis of phosphorylation on protein chip, 10-fold diluted spots (leptin-dimer kemptide) | fluorometric analysis of phosphorylation on protein chip (Cy3-labeled anti-phosphorylation serine antibody) [1]
Ab1 kinase | the Ab1 kinase showed a specific interaction with the Ab1 monomer and dimer fused with leptin | the Ab1 kinase showed a specific interaction with the Ab1 monomer and dimer fused with leptin |  | 
protein kinase A |  |  | In a diluted state as shown by 2 and 4, the dimer showed a higher reactivity than the monomer | the protein kinase A showed a specific interaction with the kemptide of a form fused with the leptin or malic enzyme
